Values quoted from earlier work as cited in publication PMC2884063.

Molecular target: Importin β (Homo sapiens) (UniProt Q14974)
Chain of UniProt Q14974 (Q14974 whole entry): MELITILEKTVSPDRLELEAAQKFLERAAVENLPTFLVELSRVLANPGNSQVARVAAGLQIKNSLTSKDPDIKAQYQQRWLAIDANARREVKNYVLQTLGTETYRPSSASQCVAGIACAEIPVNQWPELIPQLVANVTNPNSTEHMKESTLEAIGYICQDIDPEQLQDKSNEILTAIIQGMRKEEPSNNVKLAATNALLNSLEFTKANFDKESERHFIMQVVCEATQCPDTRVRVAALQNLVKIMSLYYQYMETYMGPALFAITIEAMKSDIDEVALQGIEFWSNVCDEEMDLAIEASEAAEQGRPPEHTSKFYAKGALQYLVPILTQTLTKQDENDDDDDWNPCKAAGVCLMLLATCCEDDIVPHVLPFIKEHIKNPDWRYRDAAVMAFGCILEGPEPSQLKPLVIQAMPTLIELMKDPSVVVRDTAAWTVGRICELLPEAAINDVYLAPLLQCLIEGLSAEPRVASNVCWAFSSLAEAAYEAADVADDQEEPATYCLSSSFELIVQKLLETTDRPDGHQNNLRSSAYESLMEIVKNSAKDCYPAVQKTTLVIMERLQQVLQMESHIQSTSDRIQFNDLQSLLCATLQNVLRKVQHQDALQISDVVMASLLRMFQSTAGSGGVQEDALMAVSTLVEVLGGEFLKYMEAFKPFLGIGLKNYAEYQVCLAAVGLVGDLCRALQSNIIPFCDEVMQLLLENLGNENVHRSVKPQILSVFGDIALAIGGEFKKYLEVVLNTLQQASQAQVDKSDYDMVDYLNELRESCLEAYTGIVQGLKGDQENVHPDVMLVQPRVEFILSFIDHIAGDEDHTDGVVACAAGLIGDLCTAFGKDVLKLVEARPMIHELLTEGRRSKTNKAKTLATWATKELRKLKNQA

Kd: 2 nM
Substance: Snp1 (snurportin 1) IBB (from UniProt O95149)
